According to US20200199241A1 (Chugai, published 2020):

T1: human FcγRIIa(R) (human, UniProt P12318 36-217)
T1 construct: also called FcgRIIaR; hFcgRIIa(R)
T1 chain: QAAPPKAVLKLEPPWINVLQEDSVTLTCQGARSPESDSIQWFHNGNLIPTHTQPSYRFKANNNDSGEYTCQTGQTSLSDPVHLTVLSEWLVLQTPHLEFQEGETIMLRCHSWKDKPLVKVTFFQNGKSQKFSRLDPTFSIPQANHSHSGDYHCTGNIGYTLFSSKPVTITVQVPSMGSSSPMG

T2: human FcγRIIb (human, UniProt P31994 43-217, limits assumed)
T2 construct: also called FcgRIIb; hFcgRIIb
T2 sequence: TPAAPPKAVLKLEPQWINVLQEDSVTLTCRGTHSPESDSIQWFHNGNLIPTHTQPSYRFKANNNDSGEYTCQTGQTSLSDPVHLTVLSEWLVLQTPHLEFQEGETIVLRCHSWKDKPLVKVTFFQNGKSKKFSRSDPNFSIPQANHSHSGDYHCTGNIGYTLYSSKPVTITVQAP

T3: human FcγRIIa(H) (human, UniProt P12318 36-217)
T3 construct: also called FcgRIIaH; hFcgRIIa(H)
T3 sequence: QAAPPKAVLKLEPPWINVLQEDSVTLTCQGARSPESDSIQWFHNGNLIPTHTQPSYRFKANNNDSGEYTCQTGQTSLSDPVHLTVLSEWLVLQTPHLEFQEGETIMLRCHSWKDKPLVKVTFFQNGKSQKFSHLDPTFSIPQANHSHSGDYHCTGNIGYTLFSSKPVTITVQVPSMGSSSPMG


Tests used:
Test in all cases: SPR, captured antibody;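 also: antibody captured on a sensor chip, Fcγ receptor flowed over at 25 °C, receptor binding normalized to the captured antibody amount and expressed relative to the reference antibody ×100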
human FcγRIIa(R) = molecular target: T1, human FcγRIIa(R)
human FcγRIa = molecular target: T4, human FcγRIa (human, UniProt P12314 16-292, limits assumed)
T4 construct: also called FcgRIa; hFcgRIa

human FcγRIIb = molecular target: T2, human FcγRIIb
human FcγRIIa(H) = molecular target: T3, human FcγRIIa(H)

T4 sequence (P12314 16-292 limits assumed): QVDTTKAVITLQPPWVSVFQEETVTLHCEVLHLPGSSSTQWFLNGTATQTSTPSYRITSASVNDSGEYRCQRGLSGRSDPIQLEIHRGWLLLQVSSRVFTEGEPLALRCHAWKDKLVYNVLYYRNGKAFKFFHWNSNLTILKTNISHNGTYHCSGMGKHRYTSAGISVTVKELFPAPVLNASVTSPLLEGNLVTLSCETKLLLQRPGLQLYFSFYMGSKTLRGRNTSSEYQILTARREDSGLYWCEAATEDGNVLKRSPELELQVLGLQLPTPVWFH

relative binding activity (human FcγRIIa(R)) | relative binding activity (human FcγRIa) | relative binding activity (human FcγRIIb) | relative binding activity (human FcγRIIa(H)) | Binder
45 % of GpH7-B3/GpL16-k0 | 97 % of GpH7-B3/GpL16-k0 | 29 % of GpH7-B3/GpL16-k0 | 78 % of GpH7-B3/GpL16-k0 | GpH7-B3 Q295H/GpL16-k0 (antibody, human IgG1, B3 variant; copies: 2 + 2) heavy: not shown light: DIVMTQSPLSLPVTPGEPASISCQASESLVHSNRNTYLHWYLQKPGQSPQLLIYKVSNRFSGVPDRFSGSGSGTDFTLKISRVEAEDVGVYYCSQNTHVPPTFGQGTKVEIE
79 % of GpH7-B3/GpL16-k0 | 88 % of GpH7-B3/GpL16-k0 | 34 % of GpH7-B3/GpL16-k0 | 38 % of GpH7-B3/GpL16-k0 | GpH7-B3 S298K/GpL16-k0 (antibody, human IgG1, B3 variant; copies: 2 + 2) heavy: not shown light: DIVMTQSPLSLPVTPGEPASISCQASESLVHSNRNTYLHWYLQKPGQSPQLLIYKVSNRFSGVPDRFSGSGSGTDFTLKISRVEAEDVGVYYCSQNTHVPPTFGQGTKVEIE
77 % of GpH7-B3/GpL16-k0 | 100 % of GpH7-B3/GpL16-k0 | 52 % of GpH7-B3/GpL16-k0 | 74 % of GpH7-B3/GpL16-k0 | GpH7-B3 Y296R/GpL16-k0 (antibody, human IgG1, B3 variant; copies: 2 + 2) heavy: not shown light: DIVMTQSPLSLPVTPGEPASISCQASESLVHSNRNTYLHWYLQKPGQSPQLLIYKVSNRFSGVPDRFSGSGSGTDFTLKISRVEAEDVGVYYCSQNTHVPPTFGQGTKVEIE
59 % of GpH7-B3/GpL16-k0 | 95 % of GpH7-B3/GpL16-k0 | 45 % of GpH7-B3/GpL16-k0 | 56 % of GpH7-B3/GpL16-k0 | GpH7-B3 Y300K/GpL16-k0 (antibody, human IgG1, B3 variant; copies: 2 + 2) heavy: not shown light: DIVMTQSPLSLPVTPGEPASISCQASESLVHSNRNTYLHWYLQKPGQSPQLLIYKVSNRFSGVPDRFSGSGSGTDFTLKISRVEAEDVGVYYCSQNTHVPPTFGQGTKVEIE
38 % of GpH7-B3/GpL16-k0 | 95 % of GpH7-B3/GpL16-k0 | 24 % of GpH7-B3/GpL16-k0 | 70 % of GpH7-B3/GpL16-k0 | GpH7-B3 Q295Y/GpL16-k0 (antibody, human IgG1, B3 variant; copies: 2 + 2) heavy: not shown light: DIVMTQSPLSLPVTPGEPASISCQASESLVHSNRNTYLHWYLQKPGQSPQLLIYKVSNRFSGVPDRFSGSGSGTDFTLKISRVEAEDVGVYYCSQNTHVPPTFGQGTKVEIE
0 % of GpH7-B3/GpL16-k0 | 15 % of GpH7-B3/GpL16-k0 | -1 % of GpH7-B3/GpL16-k0 | 0 % of GpH7-B3/GpL16-k0 | GpH7-B3 S298P/GpL16-k0 (antibody, human IgG1, B3 variant; copies: 2 + 2) heavy: not shown light: DIVMTQSPLSLPVTPGEPASISCQASESLVHSNRNTYLHWYLQKPGQSPQLLIYKVSNRFSGVPDRFSGSGSGTDFTLKISRVEAEDVGVYYCSQNTHVPPTFGQGTKVEIE
10 % of GpH7-B3/GpL16-k0 | 45 % of GpH7-B3/GpL16-k0 | 7 % of GpH7-B3/GpL16-k0 | 8 % of GpH7-B3/GpL16-k0 | GpH7-B3 Y296P/GpL16-k0 (antibody, human IgG1, B3 variant; copies: 2 + 2) heavy: not shown light: DIVMTQSPLSLPVTPGEPASISCQASESLVHSNRNTYLHWYLQKPGQSPQLLIYKVSNRFSGVPDRFSGSGSGTDFTLKISRVEAEDVGVYYCSQNTHVPPTFGQGTKVEIE
70 % of GpH7-B3/GpL16-k0 | 99 % of GpH7-B3/GpL16-k0 | 45 % of GpH7-B3/GpL16-k0 | 66 % of GpH7-B3/GpL16-k0 | GpH7-B3 Y296K/GpL16-k0 (antibody, human IgG1, B3 variant; copies: 2 + 2) heavy: not shown light: DIVMTQSPLSLPVTPGEPASISCQASESLVHSNRNTYLHWYLQKPGQSPQLLIYKVSNRFSGVPDRFSGSGSGTDFTLKISRVEAEDVGVYYCSQNTHVPPTFGQGTKVEIE
77 % of GpH7-B3/GpL16-k0 | 100 % of GpH7-B3/GpL16-k0 | 58 % of GpH7-B3/GpL16-k0 | 83 % of GpH7-B3/GpL16-k0 | GpH7-B3 Y296G/GpL16-k0 (antibody, human IgG1, B3 variant; copies: 2 + 2) heavy: not shown light: DIVMTQSPLSLPVTPGEPASISCQASESLVHSNRNTYLHWYLQKPGQSPQLLIYKVSNRFSGVPDRFSGSGSGTDFTLKISRVEAEDVGVYYCSQNTHVPPTFGQGTKVEIE
62 % of GpH7-B3/GpL16-k0 | 92 % of GpH7-B3/GpL16-k0 | 22 % of GpH7-B3/GpL16-k0 | 36 % of GpH7-B3/GpL16-k0 | GpH7-B3 S298R/GpL16-k0 (antibody, human IgG1, B3 variant; copies: 2 + 2) heavy: not shown light: DIVMTQSPLSLPVTPGEPASISCQASESLVHSNRNTYLHWYLQKPGQSPQLLIYKVSNRFSGVPDRFSGSGSGTDFTLKISRVEAEDVGVYYCSQNTHVPPTFGQGTKVEIE
89 % of GpH7-B3/GpL16-k0 | 100 % of GpH7-B3/GpL16-k0 | 68 % of GpH7-B3/GpL16-k0 | 43 % of GpH7-B3/GpL16-k0 | GpH7-B3 S298G/GpL16-k0 (antibody, human IgG1, B3 variant; copies: 2 + 2) heavy: not shown light: DIVMTQSPLSLPVTPGEPASISCQASESLVHSNRNTYLHWYLQKPGQSPQLLIYKVSNRFSGVPDRFSGSGSGTDFTLKISRVEAEDVGVYYCSQNTHVPPTFGQGTKVEIE
75 % of GpH7-B3/GpL16-k0 | 94 % of GpH7-B3/GpL16-k0 | 64 % of GpH7-B3/GpL16-k0 | 97 % of GpH7-B3/GpL16-k0 | GpH7-B3 S324K/GpL16-k0 (antibody, human IgG1, B3 variant; copies: 2 + 2) heavy: not shown light: DIVMTQSPLSLPVTPGEPASISCQASESLVHSNRNTYLHWYLQKPGQSPQLLIYKVSNRFSGVPDRFSGSGSGTDFTLKISRVEAEDVGVYYCSQNTHVPPTFGQGTKVEIE
56 % of GpH7-B3/GpL16-k0 | 99 % of GpH7-B3/GpL16-k0 | 41 % of GpH7-B3/GpL16-k0 | 74 % of GpH7-B3/GpL16-k0 | GpH7-B3 Q295N/GpL16-k0 (antibody, human IgG1, B3 variant; copies: 2 + 2) heavy: not shown light: DIVMTQSPLSLPVTPGEPASISCQASESLVHSNRNTYLHWYLQKPGQSPQLLIYKVSNRFSGVPDRFSGSGSGTDFTLKISRVEAEDVGVYYCSQNTHVPPTFGQGTKVEIE
33 % of GpH7-B3/GpL16-k0 | 100 % of GpH7-B3/GpL16-k0 | 23 % of GpH7-B3/GpL16-k0 | 35 % of GpH7-B3/GpL16-k0 | GpH7-B3 S298Y/GpL16-k0 (antibody, human IgG1, B3 variant; copies: 2 + 2) heavy: not shown light: DIVMTQSPLSLPVTPGEPASISCQASESLVHSNRNTYLHWYLQKPGQSPQLLIYKVSNRFSGVPDRFSGSGSGTDFTLKISRVEAEDVGVYYCSQNTHVPPTFGQGTKVEIE
34 % of GpH7-B3/GpL16-k0 | 91 % of GpH7-B3/GpL16-k0 | 36 % of GpH7-B3/GpL16-k0 | 14 % of GpH7-B3/GpL16-k0 | GpH7-B3 S324P/GpL16-k0 (antibody, human IgG1, B3 variant; copies: 2 + 2) heavy: not shown light: DIVMTQSPLSLPVTPGEPASISCQASESLVHSNRNTYLHWYLQKPGQSPQLLIYKVSNRFSGVPDRFSGSGSGTDFTLKISRVEAEDVGVYYCSQNTHVPPTFGQGTKVEIE
52 % of GpH7-B3/GpL16-k0 | 100 % of GpH7-B3/GpL16-k0 | 40 % of GpH7-B3/GpL16-k0 | 67 % of GpH7-B3/GpL16-k0 | GpH7-B3 Q295S/GpL16-k0 (antibody, human IgG1, B3 variant; copies: 2 + 2) heavy: not shown light: DIVMTQSPLSLPVTPGEPASISCQASESLVHSNRNTYLHWYLQKPGQSPQLLIYKVSNRFSGVPDRFSGSGSGTDFTLKISRVEAEDVGVYYCSQNTHVPPTFGQGTKVEIE
26 % of GpH7-B3/GpL16-k0 | 81 % of GpH7-B3/GpL16-k0 | 16 % of GpH7-B3/GpL16-k0 | 38 % of GpH7-B3/GpL16-k0 | GpH7-B3 Q295W/GpL16-k0 (antibody, human IgG1, B3 variant; copies: 2 + 2) heavy: not shown light: DIVMTQSPLSLPVTPGEPASISCQASESLVHSNRNTYLHWYLQKPGQSPQLLIYKVSNRFSGVPDRFSGSGSGTDFTLKISRVEAEDVGVYYCSQNTHVPPTFGQGTKVEIE
61 % of GpH7-B3/GpL16-k0 | 100 % of GpH7-B3/GpL16-k0 | 46 % of GpH7-B3/GpL16-k0 | 94 % of GpH7-B3/GpL16-k0 | GpH7-B3 Q295R/GpL16-k0 (antibody, human IgG1, B3 variant; copies: 2 + 2) heavy: not shown light: DIVMTQSPLSLPVTPGEPASISCQASESLVHSNRNTYLHWYLQKPGQSPQLLIYKVSNRFSGVPDRFSGSGSGTDFTLKISRVEAEDVGVYYCSQNTHVPPTFGQGTKVEIE
